Results: patent US20070134236A1 (Biogen, published 2007)

How the values were obtained:
human MCP-1 [1] = target: T1, human MCP-1 (human, UniProt P13500 24-99); assay: KinExA, in solution, Fab; Fab, not intact mAb
T1 construct: also called hMCP-1; huMCP-1
Protocol: (§1) 1 ml of MCP-1 at a concentration of 10 μg/ml in NaHCO₃ was added to an amount of beads equivalent to 1 ml of the original slurry. The beads were rocked overnight at 4° C. Beads were spun down and washed once with 1M Tris, pH 8.0, then resuspended in 1M Tris pH 8.0 with 1% BSA, 0.02% azide. The beads were rocked at room temperature for one hour then stored at 4° C. in this buffer for the duration of the experiments.
The KinExA 3000 measures protein-protein interaction in solution, and is ideally suited for measuring affinities of antibodies to antigens. In the typical experiment, antigen (MCP) is immobilized on a bead, antibody is flowed over a column of these beads at a given concentration, and the antibody that binds to the beads is detected using a fluorescent secondary. Antibody at a fixed concentration is then incubated with different concentrations of antigen in solution and the amount of free antibody is measured by flowing the mixture over the bead column quickly enough that no re-equilibration occurs between solution and solid phase. The amount of antibody remaining free is plotted against the concentration of antigen added and the data are fit to a quadratic equation to determine the affinity of the interaction in solution. […]

human MCP-2 [2] = target: T2, human MCP-2 (human, UniProt P80075 24-99); assay: KinExA, in solution
T2 construct: also called hMCP-2; huMCP-2
T2 sequence (looked up): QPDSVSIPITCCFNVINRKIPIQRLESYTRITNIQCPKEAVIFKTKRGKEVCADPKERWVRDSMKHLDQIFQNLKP
Protocol: (§2) Polymethylmethacrylate beads activated with NHS were coated with 10 μg recombinant human MCP-1 in 1 ml buffer. The beads were packed into a column in the KinExA instrument for each sample. This packed bead column is able to capture free MCP mAb or Fab flowed through the column. The amount of free mAb or Fab in solution was determined using a secondary goat anti-mouse heavy and light chain IgG-Cy5 conjugate.
(§3) A fixed amount of 11K2 mAb, 1A1 mAb, 11K2 Fab, or 1A1 Fab was incubated with various amounts of human MCP-1, MCP-2 or MCP-3 for three hours. The amount of uncomplexed free antibody remaining in solution was determined by flowing these mixtures over the MCP-1-loaded bead column and labeling with the Cy5 secondary antibody. The fluorescent signal was plotted against the MCP concentration and the affinity was determined using a quadratic curve fit

human MCP-1 [3] = target: T1, human MCP-1; assay: KinExA, in solution
Protocol: as §2, §3

human MCP-2 [4] = target: T2, human MCP-2; assay: KinExA, in solution, Fab
Protocol: as §1
The KinExA 3000 measures protein-protein interaction in solution, and is ideally suited for measuring affinities of antibodies to antigens. In the typical experiment, antigen (MCP) is immobilized on a bead, antibody is flowed over a column of these beads at a given concentration, and the antibody that binds to the beads is detected using a fluorescent secondary. Antibody at a fixed concentration is then incubated with different concentrations of antigen in solution and the amount of free antibody is measured by flowing the mixture over the bead column quickly enough that no re-equilibration occurs between solution and solid phase. The amount of antibody remaining free is plotted against the concentration of antigen added and the data are fit to a quadratic equation to determine the affinity of the interaction in solution.
In these experiments, the only difference to the typical experiment described above is that instead of using intact antibody, a Fab fragment of 11K2 was used. Earlier KimExA experiments using the intact murine 11K2 mAb binding to MCP-1 and MCP-2 gave biphasic curves that the software could not interpret. This may be due to these proteins acting as dimers, so to eliminate the dimer/dimer interaction we generated Fab fragments. The binding of the 11K2 Fab fragments to MCP-1 and MCP-2 produced curves that the KinExA software could fit.

B1: Fab fragment of murine 11K2 (Fab, V domains shown)
VH: EVQLQQSGAELVKAGASVKLSCPASGLNIKDTYMHWVKQRPEQGLEWIGRIDPANGNTKFDPKFQGKATITADTSSNTAYLQLSSLTSEDTAVYYCARGVFGFFDYWGQGTTLTVSS
VL: DIQMTQSSSSFSVSLGDRVTITCKATEDIYNRLAWYQQKPGSAPRLLISGATSLETGVPSRFSGSGSGKDYTLSITSLQTEDVATYYCQQFWSAPYTFGGGTKLEIK
notes: also called 11K2 Fab; mu11K2 Fab
Q: Which Kd (human MCP-1 [1]) does the source give for B1 here?
A: 0.011 nM

Q: And the Kd (human MCP-2 [2])?
A: 0.43 nM

Q: What about the Kd (human MCP-1 [3]) of the same binder?
A: 0.011 nM

Q: What about the Kd (human MCP-2 [4]) of the same binder?
A: 0.43 nM
